Experimental data taken from the supplement of paper PMC10567573.

B1: KCNA4 (parent)
chain: YQSGGRLKRPVNVPFDIFTEEVKF
B2: TRIM14 (parent)
chain: REQADSCREQLDIMNDLSNRVWSI

Variants of: B1
Test: protein stability index of a GFP-peptide fusion (GPS, HEK-293T) (PSI 1-6); higher = more stable
Conditions: c terminus: a fixed tail appended
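Further: lentivirally expressed fusions sorted by FACS into six bins by GFP to DsRed ratio, PSI derived from sequencing read proportions per bin multiplied by bin number.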

Row | Variant | protein stability index
1 | N12F | 2.5
2 | N12H | 1.91
3 | N12I | 1.44
4 | N12K | 3.14
5 | N12L | 2.43
6 | N12M | 2.13
7 | N12P | 1.55
8 | N12S | 2.96
9 | N12T | 2.07
10 | N12V | 1.54
11 | N12Y | 1.55
12 | V13A | 1.47
13 | V13C | 2.18
14 | V13D | 1.55
15 | V13F | 1.52
16 | V13H | 1.91
17 | V13I | 1.75
18 | V13K | 2
19 | V13L | 1.78
20 | V13M | 1.61
21 | V13N | 1.2
22 | V13P | 1.53
23 | V13Q | 1.66
24 | V13R | 2.25
25 | V13T | 1.51
26 | V13Y | 1.88

Row | Variant | protein stability index
27 | P14A | 1.37
28 | P14C | 2.19
29 | P14D | 2.28
30 | P14E | 1.42
31 | P14G | 2.98
32 | P14H | 1.86
33 | P14I | 3
34 | P14K | 1.71
35 | P14L | 1.91
36 | P14N | 2.07
37 | P14Q | 3.33
38 | P14R | 2.19
39 | P14S | 1.9
40 | P14T | 1.51
41 | P14V | 1.56
42 | P14Y | 2.7
43 | F15C | 2.41
44 | F15D | 2.6
45 | F15E | 2.75
46 | F15G | 1.98
47 | F15H | 2.47
48 | F15I | 2.45
49 | F15K | 2.1
50 | F15L | 2.15
51 | F15M | 3
52 | F15N | 1.88

Row | Variant | protein stability index
53 | F15P | 2.01
54 | F15R | 2.83
55 | F15S | 1.94
56 | F15T | 2.22
57 | F15W | 2.12
58 | F15Y | 1.56
59 | D16A | 1.83
60 | D16C | 1.1
61 | D16E | 2.08
62 | D16H | 1.08
63 | D16K | 1.57
64 | D16L | 1.85
65 | D16M | 1.54
66 | D16N | 2.03
67 | D16P | 1.52
68 | D16R | 2.48
69 | D16S | 1.21
70 | D16T | 1.29
71 | D16V | 1.55
72 | D16W | 2.98
73 | D16Y | 2.11
74 | I17A | 1.64
75 | I17C | 3.62
76 | I17D | 2.83
77 | I17E | 2.15
78 | I17F | 2.25

Row | Variant | protein stability index
79 | I17G | 1.91
80 | I17H | 1.98
81 | I17K | 2.04
82 | I17L | 2.36
83 | I17M | 1.91
84 | I17P | 1.85
85 | I17Q | 1.72
86 | I17T | 2.89
87 | I17V | 1.28
88 | I17W | 2.99
89 | I17Y | 1.99
90 | F18A | 2.28
91 | F18C | 1.57
92 | F18D | 2.01
93 | F18E | 1.81
94 | F18G | 2.29
95 | F18H | 2.15
96 | F18I | 1.97
97 | F18K | 1.84
98 | F18L | 2.5
99 | F18M | 2.02
100 | F18N | 2.1
101 | F18P | 2.44
102 | F18Q | 2.65
103 | F18R | 1.93
104 | F18S | 2.43

Row | Variant | protein stability index
105 | F18T | 2.26
106 | F18V | 1.67
107 | T19C | 1.46
108 | T19D | 2.38
109 | T19E | 1.92
110 | T19F | 2.1
111 | T19G | 1.94
112 | T19H | 2.83
113 | T19I | 1.72
114 | T19K | 2.66
115 | T19N | 2.33
116 | T19P | 1.53
117 | T19Q | 1.42
118 | T19R | 1.2
119 | T19S | 2.09
120 | T19V | 1.96
121 | T19W | 1.41
122 | T19Y | 2.16
123 | E20C | 2.11
124 | E20D | 2.57
125 | E20G | 1.57
126 | E20H | 1.43
127 | E20I | 1.47
128 | E20K | 1.7
129 | E20N | 2.12
130 | E20P | 2.11

Row | Variant | protein stability index
131 | E20Q | 1.44
132 | E20R | 1.31
133 | E20S | 1.92
134 | E20T | 1.53
135 | E21A | 1.89
136 | E21C | 1.7
137 | E21D | 2.37
138 | E21F | 1.55
139 | E21G | 2.36
140 | E21H | 1.77
141 | E21I | 2.24
142 | E21K | 1.17
143 | E21M | 1.06
144 | E21N | 2.63
145 | E21P | 2.13
146 | E21S | 1.24
147 | E21T | 1.81
148 | E21V | 1.81
149 | E21Y | 2.61
150 | V22A | 1.58
151 | V22C | 1.54
152 | V22D | 2.09
153 | V22E | 2.77
154 | V22F | 2.06
155 | V22G | 2.34
156 | V22H | 1.86

Row | Variant | protein stability index
157 | V22I | 1.38
158 | V22K | 1.59
159 | V22L | 1.99
160 | V22N | 1.83
161 | V22P | 1.54
162 | V22Q | 2.08
163 | V22R | 1.48
164 | V22S | 2
165 | V22T | 1.96
166 | V22Y | 2.25
167 | K23A | 1.35
168 | K23C | 2.33
169 | K23D | 1.82
170 | K23E | 1.05
171 | K23F | 2.99
172 | K23H | 1.71
173 | K23I | 2.65
174 | K23L | 2.53
175 | K23M | 2.17
176 | K23N | 2.3
177 | K23P | 1.44
178 | K23Q | 2.06
179 | K23R | 1.96
180 | K23T | 2.36
181 | K23V | 2.42
182 | K23Y | 1.52

Row | Variant | protein stability index
183 | F24A | 1.78
184 | F24C | 1.93
185 | F24D | 2.11
186 | F24E | 2.32
187 | F24G | 2.26
188 | F24H | 2.16
189 | F24I | 1.71
190 | F24K | 2.49
191 | F24L | 2.05
192 | F24M | 1.63
193 | F24N | 1.93
194 | F24P | 2.25
195 | F24Q | 2.92
196 | F24R | 2.59
197 | F24S | 2.79
198 | F24T | 2.18
199 | F24V | 2.49
200 | F24W | 1.92
201 | F24Y | 2.89

Variants of: B2
Test: as above
Conditions: c terminus: a fixed tail appended

Row | Variant | protein stability index
202 | R1A | 2.81
203 | R1C | 2.15
204 | R1D | 2.64
205 | R1E | 3.17
206 | R1F | 1.88
207 | R1G | 1.86
208 | R1H | 2.29
209 | R1I | 2.63
210 | R1K | 1.72
211 | R1L | 2.32
212 | R1M | 2.19
213 | R1N | 2.56
214 | R1P | 2.48
215 | R1Q | 2.58
216 | R1S | 3.43
217 | R1T | 2.75
218 | R1V | 2.96
219 | R1W | 2.82
220 | R1Y | 2.11
221 | E2A | 1.93
222 | E2C | 1.95
223 | E2D | 2.45
224 | E2F | 2.92

Row | Variant | protein stability index
225 | E2G | 1.85
226 | E2H | 1.53
227 | E2I | 1.75
228 | E2K | 1.83
229 | E2L | 1.25
230 | E2M | 2.56
231 | E2N | 2.46
232 | E2P | 2.33
233 | E2Q | 1.63
234 | E2R | 1.66
235 | E2S | 1.28
236 | E2T | 2.13
237 | E2V | 1.98
238 | E2W | 1.91
239 | E2Y | 2.83
240 | Q3A | 2.48
241 | Q3C | 2.08
242 | Q3D | 2.8
243 | Q3E | 3.01
244 | Q3F | 1.82
245 | Q3G | 1.82
246 | Q3H | 1.87
247 | Q3I | 2.04

Row | Variant | protein stability index
248 | Q3K | 1.59
249 | Q3L | 1.68
250 | Q3M | 1.75
251 | Q3N | 2.13
252 | Q3P | 2.15
253 | Q3R | 2.42
254 | Q3S | 1.77
255 | Q3T | 2.11
256 | Q3V | 1.24
257 | Q3W | 1.88
258 | Q3Y | 2.23
259 | A4C | 1.81
260 | A4D | 2.5
261 | A4E | 2.52
262 | A4F | 1.59
263 | A4G | 2.59
264 | A4H | 2
265 | A4I | 2.29
266 | A4K | 2.52
267 | A4L | 2.57
268 | A4M | 3.03
269 | A4N | 2.66
270 | A4P | 1.76

Row | Variant | protein stability index
271 | A4Q | 2.25
272 | A4R | 2.31
273 | A4S | 2.27
274 | A4T | 2.93
275 | A4V | 2.36
276 | A4W | 2.34
277 | A4Y | 2.21
278 | D5A | 1.95
279 | D5C | 1.59
280 | D5E | 2.15
281 | D5F | 1.55
282 | D5G | 1.55
283 | D5H | 2.23
284 | D5I | 2.84
285 | D5K | 3.1
286 | D5L | 3.46
287 | D5M | 2.1
288 | D5N | 2.88
289 | D5P | 2.03
290 | D5Q | 2.14
291 | D5R | 3.62
292 | D5S | 1.6
293 | D5T | 1.99

Row | Variant | protein stability index
294 | D5V | 2.09
295 | D5W | 2.21
296 | D5Y | 1.2
297 | S6A | 2.45
298 | S6C | 2.01
299 | S6D | 3.4
300 | S6E | 2.77
301 | S6F | 1.91
302 | S6G | 2.42
303 | S6H | 2.41
304 | S6I | 2.35
305 | S6K | 1.78
306 | S6L | 1.93
307 | S6M | 1.93
308 | S6N | 2.68
309 | S6P | 2.35
310 | S6Q | 2.21
311 | S6R | 1.86
312 | S6T | 1.6
313 | S6V | 1.85
314 | S6W | 2
315 | S6Y | 2.06
316 | C7A | 2.86

Row | Variant | protein stability index
317 | C7D | 3.5
318 | C7E | 3.96
319 | C7F | 2.21
320 | C7G | 3.05
321 | C7H | 3.02
322 | C7I | 2.12
323 | C7K | 3
324 | C7L | 2.27
325 | C7M | 2.52
326 | C7N | 3.52
327 | C7P | 2.74
328 | C7Q | 4.24
329 | C7R | 3.42
330 | C7S | 3.21
331 | C7T | 3.04
332 | C7V | 2.76
333 | C7W | 2.23
334 | C7Y | 2.2
